Measured values as given in publication PMC12205649.
Values belong to the molecule of their own block, whether it stands above or below them.

Legend:
E. coli CsgC (E. coli) = E. coli CsgC (E. coli) (UniProt P52107)
[1] = target: E. coli CsgA, freshly purified monomer (E. coli) (UniProt P28307); assay: native MS; ion mobility-mass spectrometry (nESI, Synapt G2); CsgA and CsgC each diluted to 20 μM and mixed 1:1 in 20 mM ammonium acetate pH 7.4, incubated at 37 °C, time points 0, 3, 6 and 23 h
[2] = target: E. coli CsgA fibrils (sonicated amyloid fibres of WT CsgA) (E. coli) (UniProt P28307); assay: SPR; BIAcore 3000, CM5 chip; sonicated CsgA fibrils amine-coupled at 1300 RU; gel-filtered CsgC injected 5 min at 4 to 0.25 μM (two-fold dilutions); phosphate buffer pH 7.5, 0.05% Tween, 25 °C; fitted with Scrubber2
[3] = target: T1, E. coli CsgC (E. coli), P52107; assay: native MS; ion mobility-mass spectrometry (nESI, Synapt G2); CsgA and CsgC each diluted to 20 μM and mixed 1:1 in 20 mM ammonium acetate pH 7.4, incubated at 37 °C, time points 0, 3, 6 and 23 h; conditions: remark: other sources report otherwise
T1 chain: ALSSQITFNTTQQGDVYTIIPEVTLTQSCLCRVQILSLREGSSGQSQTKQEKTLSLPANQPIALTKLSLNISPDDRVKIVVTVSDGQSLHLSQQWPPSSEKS

ThT binding assay: increase in lag time of CsgA eluted from the CsgC-linked column compared with CsgA eluted from the Tris-quenched column (E. coli CsgC (E. coli)): 51 min
ThT binding assay: increase in time to half maximum ThT fluorescence of CsgA eluted from the CsgC-linked column compared with CsgA eluted from the Tris-quenched column (E. coli CsgC (E. coli)): 52 min
Molecule: E. coli CsgA, freshly purified monomer (from UniProt P28307 21-151) (natural protein)

stoichiometry N [1]: 1
Kd [2]: 360 nM
koff [2]: 0.00118 s⁻¹
Molecule: E. coli CsgC (from UniProt P52107 9-110) (natural protein)

stoichiometry N [3]: 2
B1: E. coli CsgC, P52107 9-110 (natural protein)
chain: T1 chain
